In the experiment the target is Sc eIF4E (residues T25–L213), His6 tag removed (Saccharomyces cerevisiae) (UniProt P07260). Put plainly: ITC. For orientation: Isothermal titration calorimetry measures the heat released or taken up as one component is titrated into another.
Chain of Sc eIF4E (residues T25–L213), His6 tag removed (Saccharomyces cerevisiae) (P07260 25-213): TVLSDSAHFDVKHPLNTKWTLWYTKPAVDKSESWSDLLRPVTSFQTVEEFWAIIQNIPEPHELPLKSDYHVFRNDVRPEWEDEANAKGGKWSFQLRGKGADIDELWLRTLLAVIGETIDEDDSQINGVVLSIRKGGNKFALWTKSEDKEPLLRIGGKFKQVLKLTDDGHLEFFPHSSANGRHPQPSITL
Chain of Sc p20 canonical motif (C)-GB1 (domain or fragment) (P12962 whole entry, the tested form may be a part): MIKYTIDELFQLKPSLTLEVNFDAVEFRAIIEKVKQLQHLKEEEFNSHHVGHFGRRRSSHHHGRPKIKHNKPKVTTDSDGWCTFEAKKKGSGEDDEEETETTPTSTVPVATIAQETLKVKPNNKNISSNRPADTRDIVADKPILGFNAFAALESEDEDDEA
As a reminder, the Kd is the equilibrium constant for the complex coming apart. Read a high Kd as weaker binding. “Sc p20 canonical motif (C)-GB1 (domain or fragment)” displayed a Kd of 20 nM.
For “Sc eIF4G (residues V448–N500; C+L+NC)-GB1 (from UniProt P39935 448-500) (domain or fragment)”, the Kd is 70 nM.
To “Sc eIF4G canonical motif (C)-GB1 (domain or fragment)” belongs 2000 nM.
